# Molecular target: HA-NEK7 (mouse NIMA-related kinase 7, wild type) (mouse, UniProt Q9ES74 1-302)
# Assay: BLI
# Sequence of HA-NEK7 (mouse NIMA-related kinase 7, wild type) (Q9ES74 whole entry): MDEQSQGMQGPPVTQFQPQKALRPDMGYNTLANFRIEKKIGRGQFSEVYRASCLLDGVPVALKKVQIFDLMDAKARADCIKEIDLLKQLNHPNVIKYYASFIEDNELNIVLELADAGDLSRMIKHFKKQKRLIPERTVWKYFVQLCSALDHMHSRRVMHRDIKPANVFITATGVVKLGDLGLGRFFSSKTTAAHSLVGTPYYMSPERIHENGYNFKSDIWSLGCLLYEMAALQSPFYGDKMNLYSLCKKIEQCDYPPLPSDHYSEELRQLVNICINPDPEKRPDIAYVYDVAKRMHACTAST
binder,measurement,value
KLVALKTNGDGNCLMHAACQYMWGVQDTD [A20-derived peptide P-II],Kd,197 µM
